Assay results from patent US20230131339A1, “EPI-X4 BASED PEPTIDES AND DERIVATIVES THEREOF” (Universitaet Ulm, priority 2020, published 2023).
Read-outs that look alike come from different tables or passages of the source. Where a SMILES comes first, the peptide text is derived from it. Where no end group is shown, it is not given here. Side-chain parts run from the residue outwards. [ ]: non-standard residue; d: D form. The star is where a group is joined. DOTA = O=C(O)CN1CCN(CC(=O)O)CCN(CC(=O)*)CCN(CC(=O)O)CC1; Palmitoyl = CCCCCCCCCCCCCCCC(=O)*

Tests used:
[1] = tested on: CXCR4-tropic X4-HIV-1 (NL4-3); type: cell-based; details: CXCR4-tropic X4- (NL4-3)
[2] = tested on: CXCL12 induced Ca2+-signalling; assay: Ca++ signaling in BCR-ABL-transformed murine bone marrow cells; type: cell-based; details: 1 μM
Method: Fifth, it was shown that the peptide derivatives inhibit calcium-signaling. CXCL12 stimulation of CXCR4 expressing B-cells leads to a strong calcium-release. In the presence of CXCR4 antagonists this response is reduced.
For calcium measurement, 1×10^6 BCR-ABL-transformed murine bone marrow cells were incubated with 5 μg/mL of Indo-1 (Molecular Probes) and 0.5 μg/mL of pluronic F-127 (Molecular Probes) in Iscove's medium supplemented with 1% FCS (Pan Biotech) at 37° C. for 45 min. Cells were then washed by centrifugation and the cell pellets were resuspended in Iscove's medium with 1% FCS and treated with the EPI-X4 derivatives (1 μM or 0.5 μM) for 10 minutes at room temperature. Cells were pre-warmed for 5 minutes at 37° C. Calcium flux was assessed by FACS measurement at BD LSR Fortessa. After 30 seconds of baseline recording, CXCR4-dependent calcium signaling was determined by stimulating with 100 ng/ml of mouse SDF-1a (PeproTech).

[3] = tested on: CXCL12 induced migration of T-cells; assay: Migration assay (transwell, Jurkat cells); type: cell-based
Method: For each peptide, three independent experiments were performed. The error bars refer to the standard deviation.
Migration assay. Migration assays were performed using 96-well transwell assay plates (Corning Incorporated, Kennebunk, Me., USA) with 5 μm polycarbonate filters. […] Next, 75 μL (0.5×10^5 cells) of Jurkat cells (in assay buffer), together with/without the compounds, were added into the upper chambers. After 4 h at 37° C. (5% CO2), 100 μL of the lower chambers were transferred to a fresh 96 V-well plate and analyzed with Cell-Titer-Glo® assay (Promega, Madison, Wis., USA). The percentage of migrated cells was calculated as described by Balabanian et al. (2005). In order to obtain the relative migration in %, the percentage of migrated cells were normalized to the CXCL12-only control.

[4] = mice, i.v. tail vein, 4 hours post injection
[5] = Stability assay in human S9 liver fractions; details: with cofactors
Method: Further, the stability of peptides in human S9 liver fractions (in the presence of cofactors) was tested (FIG. 12). […] To simulate and predict hepatic metabolic clearance, peptides were added to human S9 liver fractions. […] For each peptide, three independent experiments were performed.
Stability assay in human S9 liver fractions. Pooled human liver S9 fractions were obtained from Thermo Fisher Scientific at a total protein concentration of 20 mg/ml. Fractions were stored in 25 μl aliquots at −80° C. For stability experiments, they were diluted to a final concentration of 0.5 mg/ml in Tris buffer. Cofactors (or buffer) were added immediately before start of the experiment (NADPH: 1 mM, UDPGA: 0.5 mM, GSH: 2.5 mM, PAPS: 0.05 mg/ml, Sigma Aldrich). The reaction was started by adding peptides or compounds at a concentration of 20 μM to the mixture and gentle agitation at 37° C. Determination of enzymatic stability was performed as described for plasma.

[6] = Stability of radiolabeled conjugates in buffer (radiochemical purity over time); type: physicochemical; details: NH4-acetate buffer pH 5.2, ethanol, room temperature
Method: The stability of ^177Lu/^68Ga-labeled DOTA-conjugated peptides in ammonium acetate buffer (0.4 M, pH 5.2) and sodium acetate buffer (0.2 M, pH 4-4.5) was assessed by determining the radiochemical purity (RCP) of each radiolabeled conjugate at different time points (0, 1, 2, 4, and 24 h for ^177Lu-complexes and at 0, 1 and 2 h for ^68Ga-complexes) at room temperature. For this, an aliquot of labeling solution was stored at room temperature. RP-HPLC injections were consecutively performed at the desired time points.
Radiolysis-induced instability of [^177Lu]Lu-labeled DOTA-conjugated peptides over time was tracked by determining the radiochemical purity (Table 3). Results are means±standard deviation from a minimum of two separate experiments.

[7] = Lipophilicity, shake-flask method (n-octanol/PBS pH 7.4); type: physicochemical
Method: The hydrophilic/lipophilic character of the ^177Lu/^68Ga-labeled conjugates was determined by the “shake-flask” method. To a pre-saturated solution containing 500 μL of n-octanol and 500 μL of phosphate-buffered saline (PBS) at pH 7.4, 10 μL of 1 picomol ^177Lu/^68Ga-labeled conjugates was added. The solutions were vortexed for 1 h to reach equilibrium and then centrifuged (3000 rpm) for 10 min. Hundred μl of the sample was removed from each phase and measured in a γ-counter. The partition coefficient was calculated as the average of the logarithmic values (n=3) of the ratio between the radioactivity in the organic and the PBS phase. Results are means±standard deviation from a minimum of two separate experiments. ^177Lu/^68Ga-labeled Pentixather, which is a known CXCR4-directed endoradiotherapeutic agent, is used as reference molecule.

[8] = tested on: CXCL12-induced AKT signaling; assay: ERK/AKT signaling assay in SupT1 cells: AKT phosphorylation; type: cell-based; details: 10 μM
Procedure, shortened: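 SupT1 cells in 1% FCS medium preincubated 15 min at 37 °C with compound, then stimulated 2 min with CXCL12 (100 ng/ml final). PFA-fixed, methanol-permeabilized cells stained for phospho-ERK1/2 (Tyr204/Tyr187) or phospho-AKT (Ser473) and read by flow cytometry; two or three independent experiments in triplicate.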

[9] = tested on: CXCL12-induced ERK signaling; assay: ERK/AKT signaling assay in SupT1 cells: ERK phosphorylation; type: cell-based; details: 1 μM
Method: Third, the activity of the claimed EPI-X4 derivatives was tested by the effect on CXCL12/CXCR4-mediated ERK (Extracellular-signal Regulated Kinases) and AKT (a serine/threonine-protein kinase) signaling (FIG. 3). In that assay CXCR4 expressing cells are stimulated with the CXCR4 chemokine-ligand CXCL12, which subsequently leads to phosphorylation of ERK and AKT. Preincubation of cells with CXCR4-antagonists blocks those pathways. […] Two or three independent experiments were carried out in triplicates for each peptide in each assay. The error bars refer to the standard deviation.
ERK/AKT signaling assay. CXCL12 induced ERK and AKT phosphorylation was determined in SupT1 cells. For this, 100,000 cells were seeded per well in a 96-V well plate in 100 μl medium supplemented with 1% FCS. Cells were incubated for 2 hours at 37° C. before 5 μl of compounds were added. After 15 min incubation at 37° C. cells were stimulated by adding 5 μl CXCL12 diluted in PBS to reach a final concentration of 100 ng/ml. Cells were further incubated for 2 min before the reaction was stopped by adding 20 μl of 10% PFA. Cells were fixed for 15 min at 4° C. before PFA was removed and cells permeabilized by adding 100 μl ice cold methanol. After 15 min at 4° C. the methanol was removed, cells were washed and 30 μl primary antibody was added (phospho-p44/42 MAPK (Erk1) (Tyr204)/(Erk2) (Tyr187) (D1H6G) mouse mAb #5726; phosphor-Akt (Ser473) (193H12) rabbit mAb #4058 Cell Signaling) for 1 hour at 4° C. After the antibody was removed and cells were washed secondary antibody was added for 30 min. Cells were washed afterwards and subsequently analyzed by flow cytometry.

[10] = Functional stability assay in human plasma
Procedure, shortened: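 EPI-X4 derivatives at 20 μM final in pooled human plasma or whole blood (EDTA), incubated at 37 °C with shaking for 2 or 8 h. Residual activity was measured by 12G5-APC antibody competition on CXCR4 and compared with a non-incubated t=0 sample. Blood samples were centrifuged to remove cells before the competition assay.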

[11] = biological target: CXC chemokine receptor type 4 (CXCR4) (human, UniProt P61073 1-352); assay: cell-based or functional assay
[12] = biological target: T1, CXC chemokine receptor type 4 (CXCR4) (human, UniProt P61073 1-352); assay: competition
T1 chain: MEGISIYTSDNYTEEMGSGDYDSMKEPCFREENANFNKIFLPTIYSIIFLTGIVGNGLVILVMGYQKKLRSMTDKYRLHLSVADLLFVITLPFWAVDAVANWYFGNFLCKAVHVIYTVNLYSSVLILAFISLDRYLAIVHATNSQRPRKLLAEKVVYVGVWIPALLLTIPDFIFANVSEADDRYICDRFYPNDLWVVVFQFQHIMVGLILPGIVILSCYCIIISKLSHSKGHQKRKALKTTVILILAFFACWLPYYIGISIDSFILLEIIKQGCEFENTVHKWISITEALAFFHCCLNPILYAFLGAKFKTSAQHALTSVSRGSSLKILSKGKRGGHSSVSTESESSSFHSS

[13] = biological target: T1, CXC chemokine receptor type 4 (CXCR4); assay: competition
[14] = biological target: T1, CXC chemokine receptor type 4 (CXCR4); assay: competition

CCCCCCCCCCCCCCCC(=O)N[C@@H](CCC(=O)O)C(=O)NCCCC[C@H](NC(=O)[C@H](CCCNC(=N)N)NC(=O)[C@H](CO)NC(=O)[C@H](Cc1c[nH]c2ccccc12)NC(=O)[C@H](CCCNC(=N)N)NC(=O)[C@H](CC(C)C)NC(=O)[C@@H](N)[C@@H](C)CC)C(N)=O [JM #192, ILRWSRK(Glu-Pal)-NH2] (H-ILRWSRK([Glu-Palmitoyl])-NH2; N-terminus assumed)
IC50 [1]: 2 nM | reduction of CXCL12 induced calcium-signaling [2]: almost completely blocked calcium-signaling | inhibition of CXCL12 induced migration of T-cells (in words) [3]: high activity | remaining activity in plasma in vivo 4 hours post injection [4]: completely lost | remaining activity in human S9 liver fractions after 2 hours [5]: faster inactivation | remaining activity in human S9 liver fractions after 8 hours [5]: more rapidly degraded compared to their N-terminally modified variants

[^177Lu]Lu-DOTA-K-JM#21: ^177Lu-labeled DOTA-K-JM #21 (SEQ ID NO.: 101) (ILRWSRKLPCVSK(DOTA); also: 177Lu chelated)
Radiochemical purity ([6]; time point 1 h): 93 ± 3% | Radiochemical purity ([6]; time point 2 h): 92 ± 6% | Radiochemical purity ([6]; time point 4 h): 90 ± 7% | Radiochemical purity ([6]; time point 24 h): 62 ± 13% | log DO/PBS pH7.4 [7]: −1.91 ± 0.24

[^177Lu]Lu-DOTA-K-JM#122: ^177Lu-labeled DOTA-K-JM #122 (SEQ ID NO.: 102) (ILRWSRKLPSVSK(DOTA); also: 177Lu complex of DOTA)
Radiochemical purity ([6]; time point 0 h): 97 ± 0% | Radiochemical purity ([6]; time point 1 h): 97 ± 0% | Radiochemical purity ([6]; time point 2 h): 96 ± 1% | Radiochemical purity ([6]; time point 4 h): 96 ± 1% | Radiochemical purity ([6]; time point 24 h): 78 ± 1% | Radiochemical purity ([6]; time point 24 h, listed as [^177Lu]Lu-DOTA-K-JM #207): 78±1% | log DO/PBS pH7.4 [7]: −3.23 ± 0.23 | log DO/PBS pH7.4 ([7]; listed as [^177Lu]Lu-DOTA-K-JM #122): −3.23±0.23

CC[C@H](C)[C@H](N)C(=O)N[C@H](C(=O)N[C@@H](CCCNC(=N)N)C(=O)N[C@@H](Cc1c[nH]c2ccccc12)C(=O)N[C@@H](CO)C(=O)N[C@@H](CCCCN)C(=O)N[C@@H](CCCCN)C(=O)N[C@H](C(=O)N1CCC[C@H]1C(=O)N[C@@H](CS)C(=O)N[C@H](C(=O)N[C@@H](CO)C(=O)O)C(C)C)C(C)C)C(C)C [WSC02, reference compound] (H-IVRWSKKVPCVS-OH; C-terminus assumed)
reduction of CXCL12-induced AKT signaling [8]: about 50% | reduction of CXCL12-induced ERK signaling [9]: 20% | remaining (relative) activity after 2 hours of plasma incubation ([10]; human plasma, 2 hours): completely inactive | remaining activity in human S9 liver fractions after 2 hours [5]: readily inactivated by liver enzymes

CC[C@@H](C)[C@@H](N)C(=O)N[C@@H](CC(C)C)C(=O)N[C@@H](CCCNC(=N)N)C(=O)N[C@@H](Cc1c[nH]c2ccccc12)C(=O)N[C@@H](CO)C(=O)N[C@@H](CCCNC(=N)N)C(=O)N[C@@H](CCCCN)C(N)=O [JM #173, d-ILRWSRK-NH2] (H-[dI]LRWSRK-NH2)
remaining (relative) activity after 8 hours of plasma incubation ([10]; human plasma, 8 hours): 100% | functional stability in human plasma (in words) ([10]; human, plasma): completely resistant to plasma enzymes | remaining activity in human S9 liver fractions after 8 hours [5]: about 14%

[^177Lu]Lu-DOTA-JM#118: ^177Lu-labeled DOTA-JM #118 (SEQ ID NO.: 166) (ILRWSRK(DOTA)-NH2; also: 177Lu complex of DOTA)
Radiochemical purity ([6]; time point 0 h): 99 ± 0% | Radiochemical purity ([6]; time point 1 h): 98 ± 0% | Radiochemical purity ([6]; time point 2 h): 97 ± 1% | Radiochemical purity ([6]; time point 4 h): 95 ± 1% | Radiochemical purity ([6]; time point 24 h): 80 ± 2% | Radiochemical purity ([6]; time point 24 h, listed as [^177Lu]Lu-DOTA-JM #118): 80±2% | log DO/PBS pH7.4 [7]: −3.12 ± 0.43

ILRWSRKLPCVS [JM#21]
fold effectiveness against WSC02, AKT signaling [11]: ~10 fold | fold more effective X4-HIV-1 inhibition than EPI-X4 [11]: ~100 fold | IC50 [12]: 211 nM | IC50 [13]: 358 nM | IC50 [14]: 147 nM
